A value given as a limit tells only on which side of the number the result lay.

From US20130052176, “APTAMER FOR NGF AND USE THEREOF” (SHIONOGI & CO., LTD, published 2013) come the findings set out here.

The target of one data set is T1, NT-3 (human, UniProt P20783 P20783:139-257).
T1 sequence: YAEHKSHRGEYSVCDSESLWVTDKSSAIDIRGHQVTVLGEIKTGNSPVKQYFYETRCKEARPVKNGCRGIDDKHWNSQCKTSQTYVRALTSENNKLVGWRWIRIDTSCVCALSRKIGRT
The data set can be described thus: SPR; binding to NT-3 not observed; TF-1 IC50 >1000 nM. To be noted: tags: R&D Systems; chain copies: 2.

For data set [1], the target named is T2, NGF (nerve growth factor) (human, UniProt P01138 P01138:122-241). Description: cell_activity; neurite outgrowth, NGF 0.38 nM; SPR binding; blocks NGF-TrkA and NGF-p75; TF-1 IC50 0.07 nM. Conditions: tags: amine-coupled to CM5 chip in SPR; soluble in cell assays; chain copies: 2. A general note: Surface plasmon resonance follows binding to a sensor surface in real time, without labels.
T2 sequence (P01138 122-241, one chain of several): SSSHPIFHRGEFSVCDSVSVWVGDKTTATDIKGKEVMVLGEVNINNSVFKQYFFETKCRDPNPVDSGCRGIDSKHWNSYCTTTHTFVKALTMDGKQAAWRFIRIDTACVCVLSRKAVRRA

In data set [2] the target is T2, NGF (nerve growth factor). Description: cell_activity; neurite outgrowth, NGF 0.38 nM; SPR binding; TF-1 IC50 0.078 nM. Conditions: tags: amine-coupled to CM5 chip in SPR; soluble in cell assays; chain copies: 2. The method, then: (§1) The neurite outgrowth inhibitory activity of the aptamer obtained in Example 1 was evaluated by using Neuroscreen-1 cell, which is a subclone of PC-12 cells.
(§2) The cells (2500 cells per well) were cultured for one day in an RPMI-1640 medium containing 2.5% horse serum and 1.25% fetal bovine serum in a 96 well flat-bottom plate coated with collagen type IV. […] Two days later, the cytoplasm and nuclei were stained using Cellomics Neurite Outgrowth Kit (manufactured by Thermo Scientific), and neurite length per cell was measured by Cellomics ArrayScan VTI (manufactured by Thermo Scientific). With the neurite length per cell obtained by the addition of NGF alone as inhibitory activity 0%, and that of the cell obtained by NGF free culture for 2 days as inhibitory activity 100%, the inhibitory activity of the aptamer was calculated from the neurite length per cell obtained by culturing with the addition of NGF and the aptamer in mixture. When the inhibitory activity was 0% or below, ‘0%’ is indicated.

Data set [3] addresses T2, NGF (nerve growth factor). Description: cell_activity; neurite outgrowth, NGF 0.38 nM; SPR binding; TF-1 IC50 >0.3 nM. To be noted: tags: amine-coupled to CM5 chip in SPR; soluble in cell assays; chain copies: 2. On the procedure:
as §1, §2

In data set [4] the target is T2, NGF (nerve growth factor). Description: cell_activity; neurite outgrowth, NGF 0.38 nM; not tested by SPR; TF-1 IC50 <0.1 nM. To be noted: tags:; soluble in cell assays; chain copies: 2. The method, then: as §1, §2
For data set [5], the target named is T2, NGF (nerve growth factor). The data set can be described thus: cell_activity; neurite outgrowth, NGF 0.38 nM; TF-1 IC50 0.065 nM. Conditions: tags: human NGF; chain copies: 2. On the procedure: as §1, §2
The target in data set [6] is T2, NGF (nerve growth factor). Description: cell_activity; neurite outgrowth, NGF 0.38 nM; TF-1 IC50 0.075 nM. Conditions: tags: human NGF; chain copies: 2. On the procedure: as §1, §2
In data set [7] the target is T2, NGF (nerve growth factor). Description: cell_activity; neurite outgrowth, NGF 1.1 nM; SPR binding; TF-1 IC50 6.8 nM. To be noted: tags: amine-coupled to CM5 chip in SPR; soluble in cell assays; chain copies: 2. On the procedure:
as §1, §2

Data set [8] has as its target T2, NGF (nerve growth factor). The data set can be described thus: cell_activity; neurite outgrowth, NGF 1.1 nM; SPR binding; TF-1 IC50 4.3 nM. To be noted: tags: amine-coupled to CM5 chip in SPR; soluble in cell assays; chain copies: 2.
The target in data set [9] is T2, NGF (nerve growth factor). Description: cell_activity; neurite outgrowth, NGF 1.1 nM; SPR binding; TF-1 IC50 2.4 nM. Conditions: tags: amine-coupled to CM5 chip in SPR; soluble in cell assays; chain copies: 2. The method, then:
as §1, §2

Data set [10] concerns the target T2, NGF (nerve growth factor). The data set can be described thus: cell_activity; neurite outgrowth, NGF 0.38 nM; TF-1 IC50 0.348 nM. To be noted: tags: human NGF; chain copies: 2. On the procedure: as §1, §2

B1: aptamer ID 26(2) (ssRNA)
RNA: GGGAGACUCGCCAGAGUUGAAAGAAACCCAAAUAAGUGUGCGCAC
modifications: 2'-F pyrimidines; 2'-OMe purines except 2'-OH at 3,5,19-22,24,26; 5' idT and 3' idT
By IC50 is commonly meant the concentration that gives 50% inhibition. Regarding B1, the binding result with NT-3 is reported as “no binding”. This molecule returned an IC50 in data set [1] of 0.06 nM.

B2: aptamer ID 26(61) (ssRNA)
RNA: GGGAGACUCGCCAGAGUUGAAAGAAACCCAAAUAAGUGUGCGCAC
modifications: 2'-F pyrimidines except 2'-OMe at 7,8,9,11,12,17,18,33,37,45 and LNA at c29; 2'-OMe purines except 2'-OH at 3,19,20,26; 5' idT and 3' idT
In the case of B2, in data set [2], the IC50 stood at 0.112 nM.

B3: aptamer ID 26(37) (ssRNA)
RNA: GGGAGACUCGCCAGAGUUGAAAGAAACCCAAAUAAGUGUGCGCAC
modifications: 2'-F pyrimidines except 2'-OMe at 7; 2'-OMe purines except 2'-OH at 3,19,20,26; PS between 18 and 19; 5' idT and 3' idT
In data set [3], B3 came in with an IC50 of 0.181 nM.

B4: aptamer ID 26(16) (ssRNA)
RNA: GGGAGACUCGCCAGAGUUGAAAGAAACCCAAAUAAGUGUGCGCAC
modifications: 2'-F pyrimidines; 2'-OMe purines except 2'-OH at 3,5,19-22,24,26; 5' PEG40GS2 (ssH linker); 3' idT
As to B4, the IC50 in [4] is below 0.1 nM.

B5: aptamer ID 26(54) (mixed)
RNA: GGGAGACUCGCCAGAGUUGAAAGAAACCCAAAUAAGUGUGCGCAC
modifications: 5' and 3' idT; 2'-OMe purines except ribo g3,g19,a20,a26; 2'-F c28,u39,c41,c43; dC27,dC29; other pyrimidines 2'-OMe
Regarding B5, the IC50 in data set [5] is 0.097 nM.

B6: aptamer ID 26(72) (mixed)
RNA: GGGAGACUCGCCAGAGUUGAAAGAAACCCAAAUAAGUGUGCGCAC
modifications: 5' PEG80TS4 via C6 amino linker (Tb); 3' idT; 2'-OMe purines except ribo g3,g19,a20,a26; 2'-F c28,c41,c43; dC27,dC29; other pyrimidines 2'-OMe
The molecule B6 displayed a half-maximal inhibitory concentration (IC50) in data set [6] of 0.219 nM.
In data set [7], GGGAGACUCGCCAGAGUUGAAAGAAACCCAAAUAAGUGUGCGCAC (ssRNA, 2'-F pyrimidines; 2'-OMe at 1,2,4,5,23-26; other purines 2'-OH) [aptamer ID 26(4)] displayed an IC50 below 1 nM.

B7: aptamer ID 26(17) (ssRNA)
RNA: GGGAGACUCGCCAGAGUUGAAAGAAACCCAAAUAAGUGUGCGCAC
modifications: 2'-F pyrimidines; 2'-OMe purines except 2'-OH at 3,5,19-22,24,26; 5' idT; 3' PEG40GS2 (amino C-6 linker)
In [4], B7 showed an IC50 below 0.1 nM.

B8: aptamer ID 26(55) (mixed)
RNA: GGGAGACUCGCCAGAGUUGAAAGAAACCCAAAUAAGUGUGCGCAC
modifications: 5' and 3' idT; 2'-OMe purines except ribo g3,g19,a20,a26; 2'-F c27,c28,c41,c43; dC29,dT39; other pyrimidines 2'-OMe
B8: half-maximal inhibition in data set [6] (IC50) required 0.087 nM.
With GGGAGACUCGCCAGAGUUGAAAGAAACCCAAAUAAGUGUGCGCAC (ssRNA, 2'-F pyrimidines; 2'-OMe at 6,10,13-16; other purines 2'-OH) [aptamer ID 26(3)], the IC50 in data set [8] was below 1 nM.

B9: aptamer ID 26(36) (ssRNA)
RNA: GGGAGACUCGCCAGAGUUGAAAGAAACCCAAAUAAGUGUGCGCAC
modifications: 2'-F pyrimidines except 2'-OMe at 7; 2'-OMe purines except 2'-OH at 3,19,20,26; PS between 3 and 4; 5' idT and 3' idT
The molecule B9 had a half-maximal inhibitory concentration (IC50) in [3] of 0.211 nM.

B10: aptamer ID 26(71) (ssRNA)
RNA: GGGAGACUCGCCAGAGUUGAAAGAAACCCAAAUAAGUGUGCGCAC
modifications: 5' PEG80TS4 via C6 amino linker (Tb); 3' idT; 2'-OMe purines except ribo g3,g19,a20,a26; 2'-F c27,c28,c29,c41,c43; other pyrimidines 2'-OMe
The molecule B10 showed an IC50 in data set [5] of 0.279 nM.
GGGAGACUCGCCAGAGUUGAAAGAAACCCAAAUAAGUGUGCGCAC (ssRNA, 2'-F pyrimidines; 2'-OMe at 21; other purines 2'-OH) [aptamer ID 26(7)] showed an IC50 in [9] below 1 nM.

B11: aptamer ID 26(53) (mixed)
RNA: GGGAGACUCGCCAGAGUUGAAAGAAACCCAAAUAAGUGUGCGCAC
modifications: 2'-F pyrimidines except 2'-OMe at 7,8,9,11,12,17,18,33,37,45; 2'-OMe purines except 2'-OH at 3,19,20 and dA at 26; 5' idT and 3' idT
The molecule B11 had a half-inhibitory concentration (IC50) in data set [2] of 0.128 nM.

B12: aptamer ID 26(69) (ssRNA)
RNA: GGGAGACUCGCCAGAGUUGAAAGAAACCCAAAUAAGUGUGCGCAC
modifications: 5' PEG40TS4 via ssH linker; 3' idT; 2'-F all pyrimidines; 2'-OMe purines except ribo g3,g19,a20,a26
In turn, B12 came in with an IC50 in data set [10] of 0.157 nM.
